Patent publication US20140303084

T1: compound 1 (not fully specified)
T1 chain: KLTCLASYCWLF

T2: compound 5
T2 chain: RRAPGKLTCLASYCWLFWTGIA


How the values were obtained:
compound 1 = biological target: T1, compound 1
compound 5 = biological target: T2, compound 5

| Protein | Vmax, FXa generation assay (compound 1) | Δ kM of FVIIa, FXa generation assay (compound 5) | Δ kcat of FVIIa, FXa generation assay (compound 5) |
| --- | --- | --- | --- |
| mouse FIXa (protein) YNSGKLEEFVRGNLERECIEERCSFEEAREVFENTEKTTEFWKQYVDGDQCESNPCLNGGICKDDISSYECWCQVGFEGRNCELDATCNIKNGRCKQFCKNSPDNKVICSCTEGYQLAEDQKSCEPTVPFPCGRASISYSSKKITRAETVFSNMDYENSTEAVFIQDDITDGAILNNVTESSESLNDFTRVVGGENAKPGQIPWQVILNGEIEAFCGGAIINEKWIVTAAHCLKPGDKIEVVAGEYNIDKKEDTEQRRNVIRTIPHHQYNATINKYSHDIALLELDKPLILNSYVTPICVANREYTNIFLKFGSGYVSGWGKVFNKGRQASILQYLRVPLVDRATCLRSTTFTIYNNMFCAGYREGGKDSCEGDSGGPHVTEVEGTSFLTGIISWGEECAMKGKYGIYTKVSRYVNWIKEKTKLT | the Vmax is greatly reduced with mFIXa compared to hFIXa |  |  |
| human Factor VIIa (protein) ANAFLEELRPGSLERECKEEQCSFEEAREIFKDAERTKLFWISYSDGDQCASSPCQNGGSCKDQLQSYICFCLPAFEGRNCETHKDDQLICVNENGGCEQYCSDHTGTKRSCRCHEGYSLLADGVSCTPTVEYPCGKIPILEKRNASKPQGRIVGGKVCPKGECPWQVLLLVNGAQLCGGTLINTIWVVSAAHCFDKIKNWRNLIAVLGEHDLSEHDGDEQSRRVAQVIIPSTYVPGTTNHDIALLRLHQPVVLTDHVVPLCLPERTFSERTLAFVRFSLVSGWGQLLDRGATALELMVLNVPRLMTQDCLQQSRKVGDSPNITEYMFCAGYSDGSKDSCKGDSGGPHATHYRGTWYLTGIVSWGQGCATVGHFGVYTRVSQYIEWLQKLMRSEPRPGVLLRAPFP |  | 0.3 | 2420 fold |
